# Legend:
# [1] = target: T1, hOrai1-mOrai1 ECL2 chimeric protein (human/mouse chimera, UniProt Q96D31 1-301); experiment: FACS, 293EBNA; set-up: concentration or dose not given beside the values
# T1 construct: human Orai1 with mouse ECL2; also called Ch
# Description: (§1) FIG. 17A-D illustrates the results of FACS analysis showing binding to the indicated mOrai1-hOrai1 ECL2 chimeric mutants expressed on the surface of HEK-293-EBNA cells. Transfected cells were stained first with recombinant monoclonal antibodies then counter-stained with a secondary phycoerythrin-labeled goat (“Gt”) anti-human (“Hu”) IgG F(ab′)₂ antibody fragment and visualized using FACS.
# (§2) Representative results of FACS analysis of binding to the mutant hOrai1-mOrai1 ECL2 chimera described above by exemplary anti-hOrai1 antibodies of the present invention are shown in FIG. 17A-D, Table 10A and Table 10B below. Table 10A (Campaign 1) and Table 10B (Campaign 2) show the gain in binding ability of exemplary monoclonal antibodies to hOrai 1-mOrai 1 ECL2 chimera mutants as determined by FACS.
# [2] = target: T2, hOrai1-mOrai1 ECL2 (…) protein (human/mouse chimera, UniProt Q96D31 1-301); experiment: FACS, 293EBNA; set-up: concentration or dose not given beside the values
# T2 construct: also called Ch
# Description: as §1, §2
# T2 sequence (Q96D31 other isoform, or with tags, fused parts or gaps): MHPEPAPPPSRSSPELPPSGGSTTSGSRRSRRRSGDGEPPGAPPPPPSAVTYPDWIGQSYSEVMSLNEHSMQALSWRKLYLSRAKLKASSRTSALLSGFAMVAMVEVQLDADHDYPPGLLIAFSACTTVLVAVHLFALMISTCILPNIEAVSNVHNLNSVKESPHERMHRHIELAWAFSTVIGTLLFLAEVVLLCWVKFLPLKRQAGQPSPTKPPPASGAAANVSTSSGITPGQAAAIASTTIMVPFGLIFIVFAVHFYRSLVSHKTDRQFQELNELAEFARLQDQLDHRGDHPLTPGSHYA
# [3] = target: T3, hOrai1-mOrai1 ECL2 (PASGAA) protein (human/mouse chimera, UniProt Q96D31 1-301); experiment: FACS, 293EBNA; set-up: concentration or dose not given beside the values
# T3 construct: also called Ch
# Description: as §1, §2
# [4] = target: T4, hOrai1-mOrai1 ECL2 (AANVST) protein (human/mouse chimera, UniProt Q96D31 1-301); experiment: FACS, 293EBNA; set-up: concentration or dose not given beside the values
# T4 construct: also called Ch
# Description: as §1, §2
# [5] = target: T5, hOrai1-mOrai1 ECL2 (GAA) protein (human/mouse chimera, UniProt Q96D31 1-301); experiment: FACS, 293EBNA; set-up: concentration or dose not given beside the values
# T5 construct: also called Ch
# Description: as §1, §2
# [6] = target: T6, hOrai1-mOrai1 ECL2 (VST) protein (human/mouse chimera, UniProt Q96D31 1-301); experiment: FACS, 293EBNA; set-up: concentration or dose not given beside the values
# T6 construct: also called Ch
# Description: as §1, §2
# [7] = target: T7, mOrai1-hOrai1 ECL2 chimeric protein (human/mouse chimera, UniProt Q8BWG9 1-304 (mouse entry)); experiment: FACS, 293EBNA, RFI-POC grade; set-up: concentration or dose not given beside the values
# T7 construct: mouse Orai1 with human ECL2; also called Ch
# [8] = target: T8, hOrai1-mOrai1 ECL2 (…) protein (human/mouse chimera, UniProt Q96D31 1-301); experiment: FACS, 293EBNA, RFI-POC grade; set-up: concentration or dose not given beside the values
# T8 construct: also called Ch
# T8 sequence (Q96D31 other isoform, or with tags, fused parts or gaps): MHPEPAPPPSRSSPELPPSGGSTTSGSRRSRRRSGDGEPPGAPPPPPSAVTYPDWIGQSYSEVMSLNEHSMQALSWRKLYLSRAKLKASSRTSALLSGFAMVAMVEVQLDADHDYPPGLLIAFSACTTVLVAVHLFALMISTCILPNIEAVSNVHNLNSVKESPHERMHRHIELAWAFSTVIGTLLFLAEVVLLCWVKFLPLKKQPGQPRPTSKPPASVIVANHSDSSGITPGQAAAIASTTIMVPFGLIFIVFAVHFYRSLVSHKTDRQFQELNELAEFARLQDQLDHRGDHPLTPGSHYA
# [9] = target: T9, hOrai1-mOrai1 ECL2 (…) protein (human/mouse chimera, UniProt Q96D31 1-301); experiment: FACS, 293EBNA, RFI-POC grade; set-up: concentration or dose not given beside the values; remark: listed apart in the source
# T9 construct: also called Ch
# T9 sequence (Q96D31 other isoform, or with tags, fused parts or gaps): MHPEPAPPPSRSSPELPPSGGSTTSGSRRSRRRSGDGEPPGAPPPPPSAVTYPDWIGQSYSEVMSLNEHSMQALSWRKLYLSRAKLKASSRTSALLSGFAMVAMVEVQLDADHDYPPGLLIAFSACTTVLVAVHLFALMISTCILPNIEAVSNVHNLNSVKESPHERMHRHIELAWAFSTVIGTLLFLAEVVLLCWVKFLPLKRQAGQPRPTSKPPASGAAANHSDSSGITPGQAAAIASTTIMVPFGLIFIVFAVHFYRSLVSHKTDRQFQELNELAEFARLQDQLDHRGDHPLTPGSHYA
# [10] = target: T1, hOrai1-mOrai1 ECL2 chimeric protein; experiment: FACS, 293EBNA transfectants
# Description: FIG. 15A-B illustrates the results of FACS analysis showing binding to human Orai1 extracellular loop 2-mouse Orai1 mutant expressed on the surface of HEK-293-EBNA cells. HEK-293-EBNA cells were transiently transfected with mouse Orai1 mutant where human Orai1 extracellular loop 2 replaced the mouse Orai1 extracellular loop 2 and human Orai1 mutant where mouse Orai1 extracellular loop 2 replaced human extracellular loop 2. Transfected cells were stained first with recombinant monoclonal antibodies then counter-stained with a secondary phycoerythrin-labeled goat (“Gt”) anti-human (“Hu”) IgG F(ab′)₂ antibody fragment and visualized using FACS.
# (§3) FACS binding analysis. Transfected 293EBNA cells transiently expressed hOrai1-mOrai1 ECL2 or mOrai1-hOrai1 ECL2 chimera. The transfected cells were harvested at 48 hours post-transfection. Cells transfected with pcDNA3.1 were used as negative controls. Cells were washed once with ice-cold 1×PBS, resuspended in ice-cold FACS buffer (1×D-PBS+2% goat serum), and 2×10⁵ cells in 100 μL were stained per antibody combination. All antibody incubation steps were performed on ice for 1 hour. […] Next, the unlabelled antibody was detected using goat F(ab′)₂ anti-mouse or anti-human IgG-phycoerythrin (IgG-PE), followed by a wash with 200 μL of ice-cold FACS buffer before flow cytometry analysis. Unstained cells and cells stained with detecting antibodies were used as negative controls. The values of relative level of fluorescence were calculated using FCS Express (De Novo Software) and mean values were calculated using log-transformed data (geometric mean). The results of the FACS analysis are shown in FIG. 15A-B, which supports the conclusion that the hOrai1 ECL2 domain is the region of hOrai1 where antibodies of the present invention bind.
# [11] = target: T10, mouse Orai1 (mouse, UniProt Q8BWG9 1-304); experiment: FACS, 293EBNA transfectants with STIM1, thapsigargin
# T10 construct: co-expressed with mouse STIM1; also called mOrai1
# Procedure: (§4) FIG. 13A-B illustrates the results of FACS analysis showing binding to human Orai1 expressed on the surface of HEK-293-EBNA cells that were treated with 2 μM Thapsigargin. HEK-293-EBNA cells were transiently transfected with human Orai1 and human STIM1, mouse Orai1 and mouse STIM1, rat Orai1 and rat STIM1 and control empty vector. Transfected cells were stained first with recombinant monoclonal antibodies then counter-stained with a secondary phycoerythrin-labeled Gt anti-Hu IgG F(ab′)₂ or Gt anti-Mu IgG F(ab′)₂ antibody fragment, as appropriate, and visualized using FACS.
# as §3, with “hOrai1, human Orai2,” for “hOrai1-mOrai1 ECL2”, “human Orai3 (results of binding comparison in FIG. 11A-B), or hOrai1(S218G) (results of binding comparison in FIG. 12A-B); or hOrai1 and hSTIM1; mOrai1 and mouse STIM1; or rat Orai1 and rat STIM1 (results of binding comparison in FIG. 13).” for “mOrai1-hOrai1 ECL2 chimera.”, “[…]” for “100 μL”, “Purified mAbs were assessed by” for “The results of the”, “assay for their ability to specifically bind human Orai1, Orai2 and Orai3 proteins expressed on HEK-293 cells.” for “analysis are shown in FIG. 15A-B, which supports the conclusion that the hOrai1 ECL2 domain is the region of hOrai1 where antibodies of the present invention bind.”
# [12] = target: T11, rat Orai1 (rat, UniProt Q5M848 1-304); experiment: as above
# T11 construct: co-expressed with rat STIM1; also called rOrai1
# Procedure: as §4
# as §3, with “hOrai1, human Orai2,” for “hOrai1-mOrai1 ECL2”, “human Orai3 (results of binding comparison in FIG. 11A-B), or hOrai1(S218G) (results of binding comparison in FIG. 12A-B); or hOrai1 and hSTIM1; mOrai1 and mouse STIM1; or rat Orai1 and rat STIM1 (results of binding comparison in FIG. 13).” for “mOrai1-hOrai1 ECL2 chimera.”, “[…]” for “100 μL”, “Purified mAbs were assessed by” for “The results of the”, “assay for their ability to specifically bind human Orai1, Orai2 and Orai3 proteins expressed on HEK-293 cells.” for “analysis are shown in FIG. 15A-B, which supports the conclusion that the hOrai1 ECL2 domain is the region of hOrai1 where antibodies of the present invention bind.”
# T1 sequence (Q96D31 other isoform, or with tags, fused parts or gaps mutant): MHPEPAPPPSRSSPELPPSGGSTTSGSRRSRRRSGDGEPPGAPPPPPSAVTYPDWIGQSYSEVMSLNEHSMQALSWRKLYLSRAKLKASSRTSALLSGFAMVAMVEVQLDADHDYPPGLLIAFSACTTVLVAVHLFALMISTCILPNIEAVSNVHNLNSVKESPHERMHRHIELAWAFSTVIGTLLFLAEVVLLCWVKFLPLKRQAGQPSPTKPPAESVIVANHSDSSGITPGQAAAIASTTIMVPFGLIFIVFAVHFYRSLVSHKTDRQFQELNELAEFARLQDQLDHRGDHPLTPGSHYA
# T7 sequence (Q8BWG9 other isoform, or with tags, fused parts or gaps mutant): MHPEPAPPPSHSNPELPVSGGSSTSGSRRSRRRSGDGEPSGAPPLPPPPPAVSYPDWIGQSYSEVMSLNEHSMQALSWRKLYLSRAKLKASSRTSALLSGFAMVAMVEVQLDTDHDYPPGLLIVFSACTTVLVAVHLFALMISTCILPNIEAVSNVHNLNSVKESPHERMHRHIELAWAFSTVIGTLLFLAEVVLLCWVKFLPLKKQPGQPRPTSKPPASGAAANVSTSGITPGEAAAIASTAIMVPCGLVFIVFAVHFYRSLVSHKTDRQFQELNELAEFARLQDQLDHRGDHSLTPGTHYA
# T5 sequence (Q96D31 other isoform, or with tags, fused parts or gaps): as the sequence (Q96D31 other isoform, or with tags, fused parts or gaps mutant) above, with V219G, I220A, V221A counted along it
# T4 sequence (Q96D31 other isoform, or with tags, fused parts or gaps): as the sequence (Q96D31 other isoform, or with tags, fused parts or gaps mutant) above, with V221A, H224V, D226T counted along it
# T3 sequence (Q96D31 other isoform, or with tags, fused parts or gaps): as the sequence (Q96D31 other isoform, or with tags, fused parts or gaps mutant) above, with A216P, E217A, V219G, I220A, V221A counted along it
# T11 sequence (Q5M848 whole entry): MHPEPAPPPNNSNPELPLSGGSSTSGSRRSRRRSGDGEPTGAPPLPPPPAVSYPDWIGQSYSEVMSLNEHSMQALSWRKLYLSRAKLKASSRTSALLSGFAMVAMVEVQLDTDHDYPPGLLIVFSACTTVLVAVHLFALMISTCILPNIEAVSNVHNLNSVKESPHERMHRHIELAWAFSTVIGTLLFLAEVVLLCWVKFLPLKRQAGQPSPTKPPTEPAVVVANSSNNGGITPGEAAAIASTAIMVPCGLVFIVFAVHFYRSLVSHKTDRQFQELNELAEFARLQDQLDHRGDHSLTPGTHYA
# T10 sequence (Q8BWG9 whole entry): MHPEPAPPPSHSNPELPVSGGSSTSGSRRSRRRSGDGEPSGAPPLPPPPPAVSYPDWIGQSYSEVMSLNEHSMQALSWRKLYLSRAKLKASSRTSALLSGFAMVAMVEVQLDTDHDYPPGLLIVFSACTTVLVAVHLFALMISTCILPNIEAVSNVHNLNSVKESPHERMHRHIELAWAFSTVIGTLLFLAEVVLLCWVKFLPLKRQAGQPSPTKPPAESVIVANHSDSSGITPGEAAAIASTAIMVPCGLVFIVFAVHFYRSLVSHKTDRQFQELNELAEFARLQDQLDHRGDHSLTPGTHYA
# T6 sequence (Q96D31 other isoform, or with tags, fused parts or gaps): as the sequence (Q96D31 other isoform, or with tags, fused parts or gaps mutant) above, with H224V, D226T counted along it
Binder,percent of control (POC) of FACS Geo Mean [1],percent of control (POC) of FACS Geo Mean [2],percent of control (POC) of FACS Geo Mean [3],percent of control (POC) of FACS Geo Mean [4],percent of control (POC) of FACS Geo Mean [5],percent of control (POC) of FACS Geo Mean [6],percent of control (POC) of FACS Geo Mean [7],percent of control (POC) of FACS Geo Mean [8],percent of control (POC) of FACS Geo Mean [9],binding result [10],binding result [11],binding result [12]
"mAb 5F2.1 (antibody, human IgG2, lambda, V domains shown, fully human IgG2 lambda, Campaign 2) VH: QVQLVQSGAEVKKPGASVKVSCKASGYTFTDYYMNWVRQAPGQGLEWMGWINPNSGGTHYAQKFQGRVTMTRDTSISTAYMELSRLRSDDTAVYYCAREYGGYSDWFDPWGQGTLVTVSS VL: QSVLTQPPSVSGAPGQRVTISCTGSRSNIGAGYDVHWYQQLPRTAPKLLIYDNSNRPSGVPDRFSGSKSGSSASLAITGLQAEDEADYYCQSYDNSLSDSVLIGGGTKLTVLG",< 1%,< 1%,< 1%,< 1%,< 1%,< 1%,40 to 100%,40 to 100%,40 to 100%,no binding (tested: 1 µg),no binding (tested: 1 µg),no binding (tested: 1 µg)
"mAb 5B1.1 (antibody, human IgG2, lambda, V domains shown, fully human IgG2 lambda, Campaign 2; also called mAb 5Bl1.1) VH: QVQLVQSGAEVKKPGASVKVSCKASGYTFTDYYINWVRQAPGQGLEWMGWINPNSGGSSYAQKFQGRVTMTRDTSISTAHMELIRLRSDDTAVYYCARERGGIEDWFDPWGQGTLVTVSS VL: QSVLTQPPSVSGAPGQRVTISCTGSSSNIGAGYDVHWYQQLPGTAPKLLIYGNSNRPSGVPDRFSGSKSGTSASLAITKFQAEDEAVYYCQSYGSGLSGVVFGGGTKLTVLG",< 1%,< 1%,< 1%,< 1%,< 1%,< 1%,40 to 100%,40 to 100%,40 to 100%,no binding (tested: 1 µg),no binding (tested: 1 µg),no binding (tested: 1 µg)
"mAb 5A1.1 (antibody, human IgG2, fully human, Campaign 2; lambda CL-1) heavy: QVQLVQSGAEVKKPGASVKVPCKASGYTFTDYYINWVRQAPGQGLEWMGWINPNNGGTNYAQKFQGRVTMTRDTSISTAYMELRRLRSDDTAVYYCARERGGYEDWFDPWGQGTLVTVSSASTKGPSVFPLAPCSRSTSESTAALGCLVKDYFPEPVTVSWNSGALTSGVHTFPAVLQSSGLYSLSSVVTVPSSNFGTQTYTCNVDHKPSNTKVDKTVERKCCVECPPCPAPPVAGPSVFLFPPKPKDTLMISRTPEVTCVVVDVSHEDPEVQFNWYVDGVEVHNAKTKPREEQFNSTFRVVSVLTVVHQDWLNGKEYKCKVSNKGLPAPIEKTISKTKGQPREPQVYTLPPSREEMTKNQVSLTCLVKGFYPSDIAVEWESNGQPENNYKTTPPMLDSDGSFFLYSKLTVDKSRWQQGNVFSCSVMHEALHNHYTQKSLSLSPGK VL: QSVLTQPPSVSGAPGQRVTISCTGSSSNIGAGFDVHWYQQLPVTAPKLLIYGNRNRPSGVPARFSGSKSGTSASLAITGLQAEDEAVYYCQSYDSSLTVFGGGTKLTVL",< 1%,< 1%,< 1%,< 1%,< 1%,< 1%,40 to 100%,40 to 100%,40 to 100%,no binding (tested: 1 µg),no binding (tested: 1 µg),no binding (tested: 1 µg)

# Reference: patent US20120231006A1 (Amgen, published 2012)
